# B1: Clover-AZIN (antizyme inhibitor with an N-terminal Clover tag) [human] / antizyme-mRuby2 (antizyme with a C-terminal mRuby2 tag) [human] (parent complex)
# chain 1: MKGFIDDANYSVGLLDEGTNLGNVIDNYVYEHTLTGKNAFFVGDLGKIVKKHSQWQNVVAQIKPFYTVKCNSAPAVLEILAALGTGFACSSKNEMALVQELGVPPENIIYISPCKQVSQIKYAAKVGVNILTCDNEIELKKIARNHPNAKVLLHIATEDNIGGEEGNMKFGTTLKNCRHLLECAKELDVQIIGVKFHVSSACKESQVYVHALSDARCVFDMAGEIGFTMNMLDIGGGFTGTEFQLEEVNHVISPLLDIYFPEGSGVKIISEPGSYYVSSAFTLAVNIIAKKVVENDKFPSGVEKTGSDEPAFMYYMNDGVYGSFASKLSEDLNTIPEVHKKYKEDEPLFTSSLWGPSCDELDQIVESCLLPELNVGDWLIFDNMGADSFHEPSAFNDFQRPAIYYMMSFSDWYEMQDAGITSDSMMKNFFFVPSCIQLSQEDSFSAEA
# chain 2: not shown
# Variants of: B1
# Experiment: FRET titration; parent: 24 nM; read off a plot
row,Variant,Kd [nM]
1,chain 1 F395A,~58
2,chain 1 E366A,~31
3,chain 1 M168A,~21
4,chain 1 F398A,~23
5,chain 1 S393A,~25
6,chain 1 S91A,~26
7,chain 1 D214A,~27
8,chain 1 D423A,~23
9,chain 1 L328A,~26
10,chain 1 F170A,~27
11,chain 1 K175A,~30
12,chain 1 K63A,~23
13,chain 1 N396A,~47
14,chain 1 K115A,~23
15,chain 1 D359A,~41
16,chain 1 K92A,~25
17,chain 1 N93A,~35
18,chain 1 S367A,~39
19,chain 1 L361A,~55
20,chain 1 S329A,~24
21,chain 1 C114A,~28
22,chain 1 K169A,~21
23,chain 1 Y321A,~27

# More lines, now with the values ahead:
row,Kd [nM],Variant
1,~21,chain 1 Q116A
2,~21,chain 1 K69A
3,~20,chain 1 E136A
4,~20,chain 1 E138A
5,~19,chain 1 K141A
6,~18,chain 1 D134A
7,~15,chain 1 S118A
8,~12,chain 1 E391A
9,~10,chain 1 R144A
10,~9.6,chain 1 Q119A
11,~9.3,chain 1 L139A

# Variants of: B1
# Experiment: FRET titration; Clover-containing proteins 50 nM; titration of AZ-mRuby2; parent: 22.2 nM
row,Kd [nM],Variant
1,28.6,chain 1 S329Y

# Reference: PMC6420652 (2019)
